Series [1] is described as follows: melting temperature (DSF); higher = more thermostable. A digest of the protocol:
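Candidate enzymes were expressed in E. coli C41(DE3), purified on nickel beads and released by SUMO protease cleavage. For differential scanning fluorimetry, 45 μL enzyme (0 to 0.3 mg/mL) was mixed with 5 μL 5X Sypro Orange in sealed PCR plates on a Bio-Rad CFX96 instrument. Fluorescence was read from 25 °C in steps of 0.3 °C per cycle (ramp 0.3 °C/s) for 250 cycles. The read-out is melting temperature.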

A short description of series [2]: purified protein yield per well (BCA); higher = higher soluble expression. A digest of the protocol: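 Each candidate enzyme was grown in E. coli C41(DE3) in a 2 mL autoinduction culture (100 µg/mL kanamycin; 2 h at 37 °C, then 40 h at 18 °C) and purified robotically via Ni-charged magnetic beads with SUMO protease cleavage. Purified protein yield per well was assessed using the Pierce Rapid Gold BCA kit. Readings below 25 ug (0.1 mg/mL) are beneath the detection threshold.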

Series [3] is described as follows: PET hydrolysis, aromatic products released after 48 h (umol product/mg enzyme); higher = more PET depolymerization activity. The procedure, abridged:
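PET hydrolysis activity was taken as the aromatic product in the supernatant and expressed per mg enzyme. This product was measured by absorbance at 260 and 280 nm against buffer blanks. Each reaction held 5 μg (50 μL) of tagless, SUMO-cleaved candidate enzyme purified on nickel beads, plus 3.5 mg amorphous PET film or crystalline PET powder in 450 μL buffer: 50 mM NaCitrate (pH 4.5, 5.5), 50 mM NaPhosphate (pH 6.5, 7.5) or glycine (pH 8.5). Plates were sealed and left 48 h at 40 or 60 °C without shaking.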

[4] abbreviates: substrate: cryPow, 40 °C, pH 5.5.
Setting [5] is: substrate: cryPow, 40 °C, pH 6.5.
Setting [6] is: substrate: cryPow, 40 °C, pH 7.5.
[7] abbreviates: substrate: cryPow, 60 °C, pH 5.5.
[8] abbreviates: substrate: cryPow, 60 °C, pH 6.5.
Setting [9] is: substrate: cryPow, 60 °C, pH 7.5.
The mark [10] stands for this setting: substrate: cryPow, 40 °C, pH 4.5.
Where [11] appears, read: substrate: cryPow, 60 °C, pH 4.5.

± gives the standard deviation of the averaged measurements. Bounds are passed on as bounds.

“ADNPYQRGPDPTNASIEAATGPFAVGTQPIVGASGFGGGQIYYPTDTSQTYGAVVIVPGFISVWAQLNWLGPRLASQGFVVIGIETSVITDLPDPRGDQALAALDWATTRSPVASRIDRTRLAAAGWSMGGGGLRRAALQRPSLKAIVGMAPWNGERNWSAVTVPTLFFGGSSDAVASPNDHAKPFYNSITRAEKDYIELRNADHFFPTSANTTMAKYFISWLKRWVDNDTRYTQFLCPGPSTGLFAPVSASMNTCPF [DP077]” showed a melting temperature in series [1] of 60.1 C. In addition, in series [2], the “purified protein yield per well” value was found to be 87 µg. Moreover, the PET hydrolysis in series [3] (setting [4]) was determined as 24; in series [3] (setting [5]), 73; in series [3] (setting [6]), 90; in series [3] (substrate: cryPow, 40 °C, pH 8.5) it was 87; in series [3] (setting [7]), 6; in series [3] (setting [8]), 23. For the same sequence, the PET hydrolysis in series [3] (setting [9]) came out at 32; in series [3] (substrate: cryPow, 60 °C, pH 8.5), 26.

Turning to “QSSSCSLMGDVNESNGVDIVDALLIAQAYVGLNPEMEYNPCADVDCSGSMNIVDALLVAQKYVGLISNFPCQISPEPTTEPTSEPVLFIACGSSSAVGSFQADEYFSGGNTHSNSNSVDISRITVNTPPAGLFNNERYGEMSYNIPGLSAGETYTVTLYFAETYLSSSGSRLFNVSINHSDVLTSFDIYDSAGGQNIAVSYSFITTADNSGNILIDFASVTENPKINGIAIMAGIGPTNVPTPEPTPTPENSGFQRGPDPSLASISANRGTFATAELTFPAGNGFGGGFIYYPTDTSLGTWGAVAICPGGSAKFANEETWMGHWLASFGFVVIGIETNNTFDFPESRGTQLLAALDYLVQKSAVKDRVDPDRLMVMGHSMGGGGAFHAALARSSLKTMVALAPWFNTNLTSPSLSNLRMPTMVISARNDTVVTPASCSAIYDKIPTSTQRAWVELAADDHLGFIKPNYTEMRVLIPWMKIFLDSDERYVQFLCPMANSSNISIYKNSCPLVP [TEP098]”, the melting temperature in series [1] was 51.7 C. In addition, the “purified protein yield per well” value in series [2] was determined as 50.5 µg. For the same sequence, the PET hydrolysis in series [3] (setting [10]), in series [3] (setting [4]), in series [3] (setting [5]) and in series [3] (setting [6]) was less than 3 each time.

Regarding “NPYERGPDPTTASIEASRGSFATSTVTVSRLAVSGFGGGTIYYPTTTTAGTFGAISIAPGFTATQSSMAWLGPRLASQGFVVFTIDTITTSDQPDSRGRQLLASLDYLTQQSSVRSRIDSSRLGVVGHSMGGGGTLEAARSRPSLQAAVPLTGWNLTKNWSTLRVPTLVVGAQSDTIAPVASHSIPFYTSLPSTLDRAYLELRGASHFAPNTSNTTIAKYTLSWLKRFIDNDTRYEQFLCPIPSSSLSISDYRGNCPHNG [ESM167]”, in series [1], the melting temperature is 55.3 C. In series [2], the “purified protein yield per well” value stood at 254 µg. For the same sequence, the PET hydrolysis in series [3] (substrate: aFilm, 40 °C, pH 4.5) was less than 3; in series [3] (substrate: aFilm, 40 °C, pH 5.5), 4; in series [3] (substrate: aFilm, 40 °C, pH 6.5) it was 6.5 ± 0.71; in series [3] (substrate: aFilm, 40 °C, pH 7.5) it was 7.5 ± 0.71; in series [3] (substrate: aFilm, 60 °C, pH 4.5), less than 3; in series [3] (substrate: aFilm, 60 °C, pH 5.5) it was less than 3. Also, the PET hydrolysis was 2 ± 2.8 in series [3] (substrate: aFilm, 60 °C, pH 6.5); 2.5 ± 3.5 in series [3] (substrate: aFilm, 60 °C, pH 7.5); 2 ± 2.8 in series [3] (setting [10]); 12.5 ± 2.1 in series [3] (setting [4]); 21 ± 4.2 in series [3] (setting [5]); 35.5 ± 0.71 in series [3] (setting [6]). Further, the PET hydrolysis was less than 3 in series [3] (setting [11]), 10.5 ± 2.1 in series [3] (setting [7]), 20 ± 1.4 in series [3] (setting [8]) and 26 ± 1.4 in series [3] (setting [9]).

“ADNPYQRGPDPTRTSVTAVNGPFANTSVSVPTGYGFNGGRIYYPTDTSQGTFGAIAISPGYTALFSAELAWMGPWLASHGFVVIGIETNSRNDFDTARGTQLLAALDYLTQQSPVRDRVDPTRLAVAGHSMGGGGALSAAIRRSSLKAVVGIAPYSPSSNLANDRVPTMIFSGQADTVVTPSYATGLYNSLPSTTESVYLEVAGADHGFMVGRSNPVMVRTMLPFVKMFVDNDARYSQFLCPLLDNSGVVTYRSTCPLLPSTPTTPTPTPTDPTTPTPTPTVPPGSASQIVGTQSGRCIDVPNASRTNGTRVQLYDCNRQTNQAWTYTSGKQLQVYGNMCLDAAGTGNGAAVQIYSCHSQTNQQWNVNSNGTISNVQSGRCLDVWSTANGAQIQLYDCHSQTNQQFRVTPLA [ESM062]” yielded a melting temperature in series [1] of 62.5 C. In addition, the “purified protein yield per well” value in series [2] was found to be 135 µg. The PET hydrolysis in series [3] (setting [10]) is 11; in series [3] (setting [4]) it was 27; in series [3] (setting [5]), 33; in series [3] (setting [6]), 24; in series [3] (setting [11]) it was less than 3; in series [3] (setting [7]) it was 4. In addition, the PET hydrolysis in series [3] (setting [8]) was 4; in series [3] (setting [9]) it was less than 3.

On to “ADNPYQRGPDPTAASVTAVNGPFANTSVSVPTGYGFNGGRIYYPTDTSQGTFGAIAISPGYTALFSAELAWMGPWLASHGFVVIGIETNSRNDFDTARGTQLLAALDYLTQQSPVRDRVDPNRLAVAGHSMGGGGALSAATRRPSLKAVVGIAPYSPSSNLANDRVPTMIFAGQADTVVTPSYATGLYNSLPTTTESTYLEVAGADHGFMVGRSNPVLVRTMLPFVKMFLDNDARYSQFLCPLLDNSGVVTYRSTCPLLPSTPTSPTPTTTPTSTPTPTPTVTPTTPPGSASQIVGTQSGRCVDVPNASRTNGTRVHLWDCNRQANQAWTYTANKQLQVYGTMCLDAAGTGNGAAVQIYSCHGQTNQQWNVNSNGTISSVQSGRCLDVWSTANGAQVQLYDCHGQTNQQFRLTALN [ESM130]”, for which the melting temperature in series [1] was determined as 58 C. Further, in series [2], the “purified protein yield per well” value worked out at 138 µg. Besides, the PET hydrolysis in series [3] (setting [10]) was less than 3; in series [3] (setting [4]) it was 6; in series [3] (setting [5]) it was 3; in series [3] (setting [6]) it was less than 3; in series [3] (setting [11]), less than 3; in series [3] (setting [7]), less than 3. For the same sequence, the PET hydrolysis in series [3] (setting [8]) and in series [3] (setting [9]) was less than 3 each time.

Turning to “ADNPYERGPAPTTSSIEASRGPFATASTTVSSLVSGFGGGTIYYPTSTAEGTFGAVAISPGYTGTQSSIAWLGPRIASQGFVVITIDTNTIYDQPDSRASQLLAALDYLTQSSSVRTRIDATRLGVMGHSMGGGGTLRAAESRPALQAAIPLTAWHTDKTWGNVRVPTLVIGAENDSIAPVATHSEPFYTSLPSTLDKAYLELNAADHFAPNSSNTTIAKYSISWLKRFIDNDTRYEQFLCPPPSRSLLIEEYRDTCPHS [TEP108]”, the melting temperature in series [1] is 42.1 C. In addition, the “purified protein yield per well” value in series [2] stood at 53.3 µg. Also, the PET hydrolysis in series [3] (setting [10]), in series [3] (setting [4]), in series [3] (setting [5]) and in series [3] (setting [6]) was less than 3 throughout.

These data come from the supplement of paper PMC12455559.
